According to PMC11906848, “Rational engineering of a thermostable α-oxoamine synthase biocatalyst expands the substrate scope and synthetic applicability” (Communications Chemistry, 2025):

Columns and labels:
ThAOS [1] = molecular target: T1, ThAOS (Thermus thermophilus, UniProt Q5SHZ8); experiment: UV-vis spectroscopy of purified holoenzyme; type: binding; details: covalent; internal aldimine
T1 construct: gene TTHA1582; recombinant in E. coli BL21(DE3), pET28a, TEV-cleavable N-terminal His6 tag; homodimer; active site includes V79 of the other monomer
Target sequence in this assay (Q5SHZ8 whole entry): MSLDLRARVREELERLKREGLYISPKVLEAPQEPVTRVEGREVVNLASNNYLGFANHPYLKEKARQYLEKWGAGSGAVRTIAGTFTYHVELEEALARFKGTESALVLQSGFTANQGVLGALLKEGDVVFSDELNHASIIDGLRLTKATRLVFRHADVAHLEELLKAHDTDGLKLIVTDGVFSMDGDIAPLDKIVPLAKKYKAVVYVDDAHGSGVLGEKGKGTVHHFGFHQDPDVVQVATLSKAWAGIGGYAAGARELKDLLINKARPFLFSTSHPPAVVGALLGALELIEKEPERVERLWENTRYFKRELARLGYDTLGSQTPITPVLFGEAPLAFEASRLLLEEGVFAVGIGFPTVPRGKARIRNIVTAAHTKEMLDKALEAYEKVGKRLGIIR

ThAOS [2] = molecular target: T1, ThAOS; experiment: UV-vis titration of PLP spectrum; type: binding; details: 0-16 mM; external aldimine and some quinonoid formation
Target sequence in this assay (Q5SHZ8 whole entry): as above

ThAOS [3] = molecular target: T1, ThAOS; experiment: DTNB assay of CoASH release; type: biochemical; details: 16 mM L-Aba; 1 mM acetyl-CoA; HEPES pH 7.5; 50 °C
Target sequence in this assay (Q5SHZ8 whole entry): as above

ThAOS [4] = molecular target: T1, ThAOS; experiment: X-ray crystal structure (crystal soak), […] Å; UV-vis; type: binding; details: covalent PLP:L-Pen thiazolidine adduct; carboxylate chelated by Arg366
purified protein [5] = substrate: N[C@@H](CO)C(=O)O; experiment: purified protein; details: acetyl-CoA co-substrate, HEPES pH 7.5, 50 °C
purified protein [6] = substrate: C[C@H](N)C(=O)O; experiment: purified protein; details: acetyl-CoA co-substrate, HEPES pH 7.5, 50 °C
[7] = substrate: CC[C@H](N)C(=O)O; experiment: DTNB assay of CoASH release; type: biochemical, Thermus thermophilus; details: acetyl-CoA co-substrate, HEPES pH 7.5, 50 °C
Excerpt: (§1) DTNB assay of CoASH release on ThAOS | catalytic efficiency (kcat/KM) for all four original amino acid substrates was improved substantially

[8] = substrate: NCC(=O)O; experiment: DTNB assay of CoASH release; type: biochemical, Thermus thermophilus; details: acetyl-CoA co-substrate, HEPES pH 7.5, 50 °C
Excerpt: as §1

[9] = substrate: CC[C@H](N)C(=O)O; experiment: DTNB assay of CoASH release; type: biochemical, Thermus thermophilus; details: acetyl-CoA co-substrate, HEPES pH 7.5, 50 °C; remark: listed apart in the source
[10] = substrate: NCC(=O)O; experiment: DTNB assay of CoASH release; type: biochemical, Thermus thermophilus; details: acetyl-CoA co-substrate, HEPES pH 7.5, 50 °C; remark: listed apart in the source

Molecule: Cc1ncc(COP(=O)(O)O)c(C=O)c1O [PLP, pyridoxal 5’-phosphate]
- UV-vis spectroscopy of purified holoenzyme (ThAOS [1]): corresponding to the tautomeric forms of the PLP-bound internal aldimines

Molecule: C[C@H](N)C(=O)O [L-Ala]
- UV-vis titration of PLP spectrum (ThAOS [2]): L-Ala binding leads to a small amount of PLP: L-Ala quinonoid formation

Molecule: CC[C@H](N)C(=O)O [L-Aba]
- DTNB assay of CoASH release (ThAOS [3]): original set of four amino acid substrates (L-Aba, L-Ala, Gly and L-Ser)

Molecule: CC(C)(S)[C@H](N)C(=O)O [L-Pen, L-penicillamine]
- X-ray crystal structure (crystal soak), 1.5 Å; UV-vis (ThAOS [4]): The structure of ThAOS V79A PLP:L-Pen complex (PDB: 8S1Y)

B1: ThAOS (Thermus thermophilus HB8; V78A) (protein)
chain: MSLDLRARVREELERLKREGLYISPKVLEAPQEPVTRVEGREVVNLASNNYLGFANHPYLKEKARQYLEKWGAGSGAARTIAGTFTYHVELEEALARFKGTESALVLQSGFTANQGVLGALLKEGDVVFSDELNHASIIDGLRLTKATRLVFRHADVAHLEELLKAHDTDGLKLIVTDGVFSMDGDIAPLDKIVPLAKKYKAVVYVDDAHGSGVLGEKGKGTVHHFGFHQDPDVVQVATLSKAWAGIGGYAAGARELKDLLINKARPFLFSTSHPPAVVGALLGALELIEKEPERVERLWENTRYFKRELARLGYDTLGSQTPITPVLFGEAPLAFEASRLLLEEGVFAVGIGFPTVPRGKARIRNIVTAAHTKEMLDKALEAYEKVGKRLGIIR
notes: recombinant in E. coli BL21(DE3), pET28a, TEV-cleavable N-terminal His6 tag; homodimer; active site includes V79 of the other monomer
- Km (purified protein [5]): 2520 ± 300 µM
- kcat (purified protein [5]): 3.81 ± 0.13 s⁻¹
- Km (purified protein [6]): 1590 ± 250 µM
- kcat (purified protein [6]): 1.23 ± 0.05 s⁻¹
- Km [7]: 3120 ± 350 µM
- kcat [7]: 2.25 ± 0.08 s⁻¹
- Km [8]: 8360 ± 1730 µM
- kcat [8]: 3.89 ± 0.32 s⁻¹

B2: ThAOS (Thermus thermophilus HB8; V78G) (protein)
chain: MSLDLRARVREELERLKREGLYISPKVLEAPQEPVTRVEGREVVNLASNNYLGFANHPYLKEKARQYLEKWGAGSGAGRTIAGTFTYHVELEEALARFKGTESALVLQSGFTANQGVLGALLKEGDVVFSDELNHASIIDGLRLTKATRLVFRHADVAHLEELLKAHDTDGLKLIVTDGVFSMDGDIAPLDKIVPLAKKYKAVVYVDDAHGSGVLGEKGKGTVHHFGFHQDPDVVQVATLSKAWAGIGGYAAGARELKDLLINKARPFLFSTSHPPAVVGALLGALELIEKEPERVERLWENTRYFKRELARLGYDTLGSQTPITPVLFGEAPLAFEASRLLLEEGVFAVGIGFPTVPRGKARIRNIVTAAHTKEMLDKALEAYEKVGKRLGIIR
notes: as for B1
- Km [9]: 830 ± 150 µM
- kcat [9]: 1.09 ± 0.04 s⁻¹
- Km [10]: 9520 ± 1910 µM
- kcat [10]: 5.12 ± 0.43 s⁻¹
- Km (purified protein [5]): 4280 ± 960 µM
- kcat (purified protein [5]): 5.74 ± 0.43 s⁻¹
- Km (purified protein [6]): 2460 ± 50 µM
- kcat (purified protein [6]): 2.39 ± 0.15 s⁻¹
